PMC13649778, “Unraveling single-molecule reactions via multiplexed in-situ DNA sequencing”
Where a chain is given by its changes, count along the chain named.

B1: CAPcons (consensus, pure; CAPcons_C, top 5G) (dsDNA)
DNA 1: GGCAGTGAGCTCTACGCAATAAATGTGATCTAGATCACATTTTAGGCAC
DNA 2: GTGCCTAAAATGTGATCTAGATCACATTTATTGCGTAGAGCTCACTGCC
B2: CAPcons library member CAPcons_G (top 5C) (dsDNA)
DNA 1: B1 DNA 1 with G25C
DNA 2: B1 DNA 2 with C25G
B3: CAPcons library member CAPcons_A (top 5T; table letter taken as bottom-strand base) (dsDNA)
DNA 1: B1 DNA 1 with G25T
DNA 2: B1 DNA 2 with C25A
B4: CAPcons library member CAPcons_C (consensus, top 5G) (dsDNA)
DNA 1: B1 DNA 1
DNA 2: B1 DNA 2
B5: CAPcons position 5 C:G variant (pure; CAPcons_G) (dsDNA)
DNA 1: B1 DNA 1 with G25C
DNA 2: B1 DNA 2 with C25G
B6: CAPcons library member CAPcons_T (top 5A; table letter taken as bottom-strand base) (dsDNA)
DNA 1: B1 DNA 1 with G25A
DNA 2: B1 DNA 2 with C25T

Assays:
[1] = molecular target: T1, Alexa647-CAP (CAP-(Cys17;Ser178), catabolite activator protein) (Escherichia coli, UniProt P0ACJ8 1-210, H18C;C179S); assay: single-molecule fluorescence (koff/kon); 0.2 mM cAMP, 10 mM Mg2+; 40 mM Tris pH 8, 100 mM KCl, 10 mM MgCl2, 5% glycerol, 0.2 mM cAMP, 1 mM TROLOX, glucose oxidase/catalase; 1.25 nM (pure) or 2.5 nM (library) Alexa647-CAP; temperature not stated; conditions: protein: recombinant; tags: His6; Alexa647 maleimide (40% labelled); chain copies: 2; label: Cy3B at top position 13; 5' biotin on bottom strand; blunt
[2] = molecular target: T1, Alexa647-CAP (CAP-(Cys17;Ser178), …); assay: single-molecule fluorescence (SPIN-Seq library); 0.2 mM cAMP, 10 mM Mg2+; 40 mM Tris pH 8, 100 mM KCl, 10 mM MgCl2, 5% glycerol, 0.2 mM cAMP, 1 mM TROLOX, glucose oxidase/catalase; 1.25 nM (pure) or 2.5 nM (library) Alexa647-CAP; temperature not stated; conditions: protein: recombinant; tags: His6; Alexa647 maleimide (40% labelled); chain copies: 2; label: Cy3B at top position 11; 5' biotin on bottom strand; blunt

Binder | Kd [1] [nM] | Kd [2] [nM]
B1 | 9.1 ± 0.6 | 
B2 |  | 20.1 ± 0.9
B3 |  | 29.1 ± 1.6
B4 |  | 10.6 ± 0.6
B5 | 20.2 ± 1.3 | 
B6 |  | 24.4 ± 0.8
